Experimental data reported in patent publication US20170240926 (published 2017).
No end group written: not given here. *: point of attachment. Dansyl = CN(C)c1cccc2c(S(=O)(=O)*)cccc12

B1: dansyl-TKCYPD (peptide)
chain: Dansyl-TKCYPD
B2: dansyl-TKCVLH (peptide)
chain: Dansyl-TKCVLH
B3: dansyl-TKCITQ (peptide)
chain: Dansyl-TKCITQ
B4: dansyl-TKCCIF (peptide)
chain: Dansyl-TKCCIF
modifications: cysteine pairing not given here
B5: dansyl-TKCKIS (peptide)
chain: Dansyl-TKCKIS
B6: dansyl-TKCCIL (peptide)
chain: Dansyl-TKCCIL
modifications: cysteine pairing not given here
B7: dansyl-TKCNIM (peptide)
chain: Dansyl-TKCNIM
B8: dansyl-TKCTLA (peptide)
chain: Dansyl-TKCTLA
B9: dansyl-TKCGIM (peptide)
chain: Dansyl-TKCGIM
B10: dansyl-TKCFLS (peptide)
chain: Dansyl-TKCFLS
B11: dansyl-TKCNLT (peptide)
chain: Dansyl-TKCNLT
B12: dansyl-TKCTLM (peptide)
chain: Dansyl-TKCTLM
B13: dansyl-TKCKIF (peptide)
chain: Dansyl-TKCKIF
B14: dansyl-TKCVLA (peptide)
chain: Dansyl-TKCVLA
B15: dansyl-TKCTLQ (peptide)
chain: Dansyl-TKCTLQ
B16: dansyl-TKCRIS (peptide)
chain: Dansyl-TKCRIS
B17: dansyl-TKCAVQ (peptide)
chain: Dansyl-TKCAVQ
B18: dansyl-TKCTMS (peptide)
chain: Dansyl-TKCTMS
B19: dansyl-TKCSLC (peptide)
chain: Dansyl-TKCSLC
modifications: cysteine pairing not given here
B20: dansyl-TKCSIM (peptide)
chain: Dansyl-TKCSIM
B21: dansyl-TKCSIS (peptide)
chain: Dansyl-TKCSIS
B22: dansyl-TKCLVM (peptide)
chain: Dansyl-TKCLVM
B23: dansyl-TKCSLM (peptide)
chain: Dansyl-TKCSLM
B24: dansyl-TKCSLG (peptide)
chain: Dansyl-TKCSLG
B25: dansyl-TKCTII (peptide)
chain: Dansyl-TKCTII
B26: dansyl-TKCNLQ (peptide)
chain: Dansyl-TKCNLQ
B27: dansyl-TKCIVA (peptide)
chain: Dansyl-TKCIVA
B28: dansyl-TKCYVM (peptide)
chain: Dansyl-TKCYVM
B29: dansyl-TKCLLM (peptide)
chain: Dansyl-TKCLLM
B30: dansyl-TKCVVT (peptide)
chain: Dansyl-TKCVVT
B31: dansyl-TKCLTS (peptide)
chain: Dansyl-TKCLTS
B32: dansyl-TKCLIT (peptide)
chain: Dansyl-TKCLIT
B33: dansyl-TKCTKF (peptide)
chain: Dansyl-TKCTKF
B34: dansyl-TKCSVS (peptide)
chain: Dansyl-TKCSVS
B35: dansyl-TKCSFM (peptide)
chain: Dansyl-TKCSFM

Each binder was assayed against FTase (protein farnesyltransferase) (UniProt P49354).

Going from B1 to B2, the Kd rises from 3.3 nM to 14 nM (4.2-fold).

Going from B3 to B4, the Kd rises from 3.6 nM to 270 nM (75-fold). The first binds more tightly here.

Going from B5 to B6, the Kd rises from 4 nM to 300 nM (75-fold).

B7 and B8 are within 1.5-fold of each other in Kd: 5 nM for the first, 4.4 nM for the second.

Going from B9 to B10, the Kd rises from 3.6 nM to 19 nM (5.3-fold).

B11 and B12 are within 1.5-fold of each other in Kd: 3.7 nM for the first, 5.2 nM for the second.

Going from B13 to B14, the Kd rises from 2.5 nM to 4.6 nM (1.8-fold). The first binds more tightly here.

Going from B15 to B16, the Kd rises from 7 nM to 12 nM (1.7-fold). The first binds more tightly here.

Going from B17 to B18, the Kd falls from 13 nM to 6 nM (2.2-fold).

B19 and B20 are within 1.5-fold of each other in Kd: 5 nM for the first, 6 nM for the second.

First: B21
Second: B22
The Kd of the first is 1.8-fold lower: 3.4 nM for the first, 6 nM for the second.

Compared with B23, B24 is 2.4-fold lower in Kd: 8 nM for the first, 3.4 nM for the second. The second binds more tightly here.

Compared with B25, B26 is 1.9-fold higher in Kd: 4.2 nM for the first, 8 nM for the second. The first binds more tightly here.

Compared with B27, B28 is 2.4-fold higher in Kd: 5 nM for the first, 12 nM for the second.

B29 and B30 are within 1.5-fold of each other in Kd: 4.7 nM for the first, 7 nM for the second.

B31 and B32 are within 1.5-fold of each other in Kd: 5 nM for the first, 4.1 nM for the second.

First: B33
Second: B34
The Kd of the first is 2.9-fold higher: 6 nM for the first, 2.1 nM for the second. The second binds more tightly here.

In the case of B35, the Kd is reported as 10 nM.
